T1: Boi1, P38041
T1 sequence (P38041 1-86, looked up): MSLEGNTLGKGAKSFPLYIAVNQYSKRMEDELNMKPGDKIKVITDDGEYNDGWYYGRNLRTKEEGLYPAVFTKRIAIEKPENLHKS

T2: Cdc25, P04821
T2 sequence (P04821 50-136, looked up): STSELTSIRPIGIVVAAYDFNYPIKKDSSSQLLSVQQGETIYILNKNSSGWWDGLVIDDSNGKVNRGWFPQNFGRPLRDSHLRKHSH

T3: Abp1, P15891
T3 sequence (P15891 535-592, looked up): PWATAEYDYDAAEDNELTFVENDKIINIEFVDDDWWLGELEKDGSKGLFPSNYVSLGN

T4: Lsb3, P43603
T4 sequence (P43603 385-451, looked up): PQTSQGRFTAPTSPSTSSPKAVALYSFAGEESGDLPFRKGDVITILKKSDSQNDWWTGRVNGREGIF

T5: Nbp2, Q12163
T5 sequence (Q12163 103-180, looked up): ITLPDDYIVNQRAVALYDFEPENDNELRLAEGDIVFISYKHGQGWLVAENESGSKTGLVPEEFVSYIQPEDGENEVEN

T6: Sla1-3, P32790
T6 sequence (P32790 344-424, looked up): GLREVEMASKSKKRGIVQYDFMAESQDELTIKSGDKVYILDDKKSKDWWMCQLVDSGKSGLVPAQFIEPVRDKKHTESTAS

T7: Pex13, P80667
T7 sequence (P80667 295-386, looked up): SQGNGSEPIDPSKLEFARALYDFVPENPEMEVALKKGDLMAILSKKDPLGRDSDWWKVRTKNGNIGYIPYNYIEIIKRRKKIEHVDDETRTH

T8: Bud14, P27637
T8 sequence (P27637 247-328, looked up): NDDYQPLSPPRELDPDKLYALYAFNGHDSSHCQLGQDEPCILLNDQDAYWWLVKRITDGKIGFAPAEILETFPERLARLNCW

T9: Bzz1-2, P38822
T9 sequence (P38822 568-633, looked up): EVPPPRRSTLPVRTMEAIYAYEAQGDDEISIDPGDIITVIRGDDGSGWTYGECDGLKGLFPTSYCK

T10: Lsb4, P32793
T10 sequence (P32793 402-468, looked up): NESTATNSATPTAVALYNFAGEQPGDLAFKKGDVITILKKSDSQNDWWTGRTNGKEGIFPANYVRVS

T11: Sla1-2, P32790
T11 sequence (P32790 60-140, looked up): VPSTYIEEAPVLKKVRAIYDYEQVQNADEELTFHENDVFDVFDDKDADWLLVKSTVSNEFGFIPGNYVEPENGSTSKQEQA

T12: Hof1, Q05080
T12 sequence (Q05080 590-669, looked up): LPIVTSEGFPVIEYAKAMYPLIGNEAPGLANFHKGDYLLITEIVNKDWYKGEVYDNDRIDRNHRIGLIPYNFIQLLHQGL

T13: Bzz1-1, P38822
T13 sequence (P38822 478-572, looked up): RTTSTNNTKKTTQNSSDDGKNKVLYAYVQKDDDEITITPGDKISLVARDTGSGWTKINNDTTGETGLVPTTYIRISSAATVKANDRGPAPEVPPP

T14: Bbc1, P47068
T14 sequence (P47068 1-78, looked up): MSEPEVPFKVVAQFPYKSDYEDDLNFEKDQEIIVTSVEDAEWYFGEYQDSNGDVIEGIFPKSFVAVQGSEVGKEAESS

T15: Cyk3, Q07533
T15 sequence (Q07533 1-83, looked up): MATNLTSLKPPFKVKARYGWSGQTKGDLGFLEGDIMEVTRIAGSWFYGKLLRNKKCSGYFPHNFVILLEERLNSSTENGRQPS

T16: Myo5, Q04439
T16 sequence (Q04439 1072-1160, looked up): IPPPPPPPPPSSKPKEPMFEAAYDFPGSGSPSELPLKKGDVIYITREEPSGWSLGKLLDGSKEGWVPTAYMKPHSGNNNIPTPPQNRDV

T17: Pin3, Q06449
T17 sequence (Q06449 53-122, looked up): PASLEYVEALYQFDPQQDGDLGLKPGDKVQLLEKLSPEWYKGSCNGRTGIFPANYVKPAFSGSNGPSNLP

T18: Lsb1, P53281
T18 sequence (P53281 45-122, looked up): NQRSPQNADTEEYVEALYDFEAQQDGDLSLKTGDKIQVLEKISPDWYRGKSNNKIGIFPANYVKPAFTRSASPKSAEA

T19: Fus1, P11710
T19 sequence (P11710 432-512, looked up): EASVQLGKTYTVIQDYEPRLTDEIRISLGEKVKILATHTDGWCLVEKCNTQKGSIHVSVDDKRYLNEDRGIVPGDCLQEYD

T20: Hse1, P38753
T20 sequence (P38753 208-285, looked up): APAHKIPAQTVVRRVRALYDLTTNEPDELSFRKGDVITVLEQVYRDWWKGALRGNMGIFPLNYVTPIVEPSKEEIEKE

T21: Boi2, P39969
T21 sequence (P39969 32-116, looked up): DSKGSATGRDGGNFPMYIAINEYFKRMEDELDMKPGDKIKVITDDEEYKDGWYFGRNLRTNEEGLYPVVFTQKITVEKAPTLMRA


Columns and labels:
Assay in all cases: SPOT array
[1] = target: T1, Boi1, P38041; conditions: median of control spots 1162
[2] = target: T2, Cdc25, P04821; conditions: median of control spots 969
[3] = target: Bem1-1, P29366; conditions: median of control spots 4282
Chain of Bem1-1, P29366 (P29366 55-141): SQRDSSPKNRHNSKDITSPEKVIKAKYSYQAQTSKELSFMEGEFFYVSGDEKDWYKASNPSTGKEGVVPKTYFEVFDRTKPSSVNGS

[4] = target: T3, Abp1, P15891; conditions: median of control spots 935
[5] = target: T4, Lsb3, P43603; conditions: median of control spots 406
[6] = target: T5, Nbp2, Q12163; conditions: median of control spots 357
[7] = target: T6, Sla1-3, P32790; conditions: median of control spots 5475
[8] = target: T7, Pex13, P80667; conditions: median of control spots 1341
[9] = target: Sho1, P40073; conditions: median of control spots 1148
Chain of Sho1, P40073 (P40073 287-367): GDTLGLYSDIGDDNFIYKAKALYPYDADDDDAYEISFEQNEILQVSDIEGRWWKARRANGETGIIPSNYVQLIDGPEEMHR

[10] = target: T8, Bud14, P27637; conditions: median of control spots 956
[11] = target: T9, Bzz1-2, P38822; conditions: median of control spots 4538
[12] = target: T10, Lsb4, P32793; conditions: median of control spots 397
[13] = target: T11, Sla1-2, P32790; conditions: median of control spots 712
[14] = target: T12, Hof1, Q05080; conditions: median of control spots 4086
[15] = target: Myo3, P36006; conditions: median of control spots 468
[16] = target: T13, Bzz1-1, P38822; conditions: median of control spots 4446
[17] = target: T14, Bbc1, P47068; conditions: median of control spots 796
[18] = target: T15, Cyk3, Q07533; conditions: median of control spots 1451
[19] = target: Bem1-2, P29366; conditions: median of control spots 4347
Chain of Bem1-2, P29366 (P29366 139-227): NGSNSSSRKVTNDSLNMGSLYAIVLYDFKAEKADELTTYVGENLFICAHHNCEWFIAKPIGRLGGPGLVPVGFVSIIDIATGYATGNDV

[20] = target: GST; conditions: median of control spots 978
[21] = target: T16, Myo5, Q04439; conditions: median of control spots 471
[22] = target: T17, Pin3, Q06449; conditions: median of control spots 2171
[23] = target: T18, Lsb1, P53281; conditions: median of control spots 388
[24] = target: T19, Fus1, P11710; conditions: median of control spots 1200
[25] = target: Rvs167, P39743; conditions: median of control spots 2707
Chain of Rvs167, P39743 (P39743 419-482): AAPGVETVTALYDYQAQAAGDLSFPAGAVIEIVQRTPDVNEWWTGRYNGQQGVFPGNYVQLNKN

[26] = target: T20, Hse1, P38753; conditions: median of control spots 1727
[27] = target: T21, Boi2, P39969; conditions: median of control spots 1161

| SPOT intensity [1] | SPOT intensity [2] | SPOT intensity [3] | SPOT intensity [4] | SPOT intensity [5] | SPOT intensity [6] | SPOT intensity [7] | SPOT intensity [8] | SPOT intensity [9] | SPOT intensity [10] | SPOT intensity [11] | SPOT intensity [12] | SPOT intensity [13] | SPOT intensity [14] | SPOT intensity [15] | SPOT intensity [16] | SPOT intensity [17] | SPOT intensity [18] | SPOT intensity [19] | SPOT intensity [20] | Binder | other results |
| --- | --- | --- | --- | --- | --- | --- | --- | --- | --- | --- | --- | --- | --- | --- | --- | --- | --- | --- | --- | --- | --- |
| 1 | 1 | 0 | 48 | 6 | 0 | 17 | 2 | 49 | 1 | 5 | 9 | 0 | 0 | 4 | 0 | 1 | 0 | 0 | 1 | RKQRSIPLSPIVPES | SPOT intensity [21]: 2; SPOT intensity [22]: 7; SPOT intensity [23]: 2; SPOT intensity [24]: 17; SPOT intensity [25]: 0; SPOT intensity [26]: 0; SPOT intensity [27]: 1 |
| 1 | 10 | 0 | 28 | 2 | 0 | 29 | 4 | 64 | 3 | 1 | 0 | 1 | 4 | 8 | 1 | 24 | 0 | 0 | 0 | RSRRSSFAYPQQVAI | SPOT intensity [21]: 0; SPOT intensity [22]: 8; SPOT intensity [23]: 0; SPOT intensity [24]: 26; SPOT intensity [25]: 2; SPOT intensity [26]: 5; SPOT intensity [27]: 0 |
| 1 | 27 | 0 | 121 | 4 | 2 | 20 | 3 | 120 | 24 | 6 | 8 | 1 | 0 | 14 | 0 | 190 | 1 | 1 | 2 | TKIRRRPQQPLTDFT | SPOT intensity [21]: 2; SPOT intensity [22]: 11; SPOT intensity [23]: 30; SPOT intensity [24]: 6; SPOT intensity [25]: 1; SPOT intensity [26]: 1; SPOT intensity [27]: 1 |
| 0 | 0 | 0 | 4 | 0 | 0 | 16 | 2 | 9 | 0 | 2 | 0 | 0 | 1 | 0 | 0 | 13 | 0 | 0 | 1 | GKLKHIPRRPYEIER | SPOT intensity [21]: 0; SPOT intensity [22]: 4; SPOT intensity [23]: 5; SPOT intensity [24]: 0; SPOT intensity [25]: 1; SPOT intensity [26]: 1; SPOT intensity [27]: 0 |
